Data from the nanobody polyreactivity screen of Harvey et al. (2022).

Experiment: yeast display, Sf9 membrane polyspecificity reagent, FACS + sequencing; frameworks hold sequencing errors
Method in brief: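 A nanobody's polyreactivity label depends on the gate it was sorted from. Yeast display cells were stained with 10% biotinylated, detergent-solubilized Sf9 membrane reagent for 1 hour at 4 °C, enriched on streptavidin microbeads and sorted by FACS. The low and high (top ~1%) gates were set on anti-HA fluorescence for expression and streptavidin fluorescence for reagent binding.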

Sequence | polyreactivity (PSR sort gate)
QVQLVESGGGLVQAGGSLRLSCAASGSTFGSYAMGWYRQAPGKERELVAAISRGGGSTYYADSVKGRFTISRDNAKNTVYLQMKSLKPEDTAVYYCAASFSRYGLVLYSIEDYWGQGTQVTVSS | high polyreactivity
QVQLVESGGGLVQAGGSLRLSCAASGSTFGSYAMGWYRQAPGKERELVASISLSDGSTYADSVKGRFTISRDNAKNTVYLQMNSLKQEDTAVYYCNVDWFSHDSDYYSFAYDYWGQGTQVTVSS | high polyreactivity
QVQLVESGGGLVQAGGSLRLSCAASGSTFGSYVMGWYRQAPGKERELVAAISQRGTSTYYADSVKGRFTISRDNAKNTVYLQMNSLKPEDTAVYYCNALYWQIGDDYWGQGTQVTVSS | high polyreactivity
QVQLVESGGGLVQAGGSLRLSCAASGSTFGTNAMGWYRQAPGKEREFVAAISRRGGRTYYADSVKGRFTISRDNAKNTVYLQMNSLKPEDTAVYYCNAVSTGQGLYDYWGQGTQVTVSS | high polyreactivity
QVQLVESGGGLVQAGGSLRLSCAASGSTFGTNAMGWYRQAPGKERELVAAISVSSTYYADSVKGRFTISRDNAKNTVYLQMNSLKPEDTAVYYCAADNSYGYRLDYWGQGTQVTVSS | low polyreactivity
QVQLVESGGGLVQAGGSLRLSCAASGSTFGTNAMGWYRQAPGKERELVARINSSASTTYADSVKGRFTISRDNAKNTVYLQMNSLKPEDTAVYYCNADDRHSRVGHSWQDAQFDYWVQGTQVTVSS | high polyreactivity
QVQLVESGGGLVQAGGSLRLSCAASGSTFGTYAMGWYRQAPGKEREFVAVIRWSGGSTYYADSVKGRFTISRDNAKNTVYLQMNSLKPEDTAVYYCNADTRVKYVGWMYYWGQGTQVTVSS | high polyreactivity
QVQLVESGGGLVQAGGSLRLSCAASGSTFGTYAMGWYRQAPGKERELVAAINTSGGSTTYADSVKGRFTISRDNAKNTVYLQMNSLKPEDTAVYYCAKDTTGDAYSEYDYWGQGTQVTVSS | low polyreactivity
QVQLVESGGGLVQAGGSLRLSCAASGSTFGVNAMGWYRQAPGKERELVAAIRSAVPTYYADSVKGRFTISRDNAMNTVYLQMNSLKPEETAVYYCAARHRESQRRYDYWGQGTQVTVSS | high polyreactivity
QVQLVESGGGLVQAGGSLRLSCAASGSTFGVNARGWYRQAPGKERELVAGITWTGGSSYYADSVKGRFTISRDNAKNTVYLQMNSLKPEDTAVYYCAKDWYSSYYDDSEDSWGQGTQVTVSS | low polyreactivity
QVQLVESGGGLVQAGGSLRLSCAASGSTFGVSAMGWSRQAPGKERELVAAISGRGGRTYYADSVKGRFTISRDNAKNTVYLLMNSLKPEDTAVYYFAVVGSAYQSRYDYWGQGTQVTVSS | high polyreactivity
QVQLVESGGGLVQAGGSLRLSCAASGSTFGVYAMGRYRQAPGKERELVAAISYGDSTNYADSVKGRFTISRDNAKNTVYLQMNSLIPEDTAVYYCNALELYAAYPEYYLYYWYDYWGQGTQVNVSS | high polyreactivity
QVQLVESGGGLVQAGGSLRLSCAASGSTFGWNTMGWYRQAPGKERELVAAISWSGDRTYYADSVKGRFTISRDNAKNTVYLQMNSLKPDDTAVYYCARQRYYGYYYWGQGTQVTVSS | high polyreactivity
QVQLVESGGGLVQAGGSLRLSCAASGSTFGWYAMGWDRQAPGKERELVAAIRNNDGRTYYADSVKGRFTISRDNAKNTVYLQMNSLKPEDTAVDYCNKRLDTVGWYHGYNYWGQGTQVTVSS | low polyreactivity
QVQLVESGGGLVQAGGSLRLSCAASGSTFGWYAMGWFRQAPGKERELVAAITSGGSTKYADSVKGRFTISRDNAKNTVYLQMNSLKPEDTAVYYCATVRGYYSPVQVIGYFWGQGTQVTVSS | high polyreactivity
QVQLVESGGGLVQAGGSLRLSCAASGSTFGWYAMGWYRQAPGKERELVAAISTSGNTYYADSVKGRFTISRDNAKNTVYLQMNSLKPEDTAVYYCAKYVNPDHDYWGQGTQVTVSS | low polyreactivity
QVQLVESGGGLVQAGGSLRLSCAASGSTFGWYAMGWYRQAPGKERELVASISRSGGRTFYADSVKGRFTISRDNAKNTVYLQMNRLKPEDTAVYYCAADALIYYKGSPDYYWGQGTQVNVSS | high polyreactivity
